The term EC50 denotes the concentration needed to bring the measured effect to its halfway point. A high value points to a need for much substance. In general, Kd refers to the concentration at which binding is half-saturated. A high value points to a looser complex. The term IC50 denotes the midpoint of a concentration-inhibition curve. Lower therefore signals inhibition by little substance.

The results in this text go back to patent US20200407445A1 (ITEOS THERAPEUTICS, published 2020).

Changes are numbered by the printed parent chain.

First the molecules themselves.
T1: human TIGIT expressed on cells (human, UniProt Q495A1 22-244)
T1 construct: whole, on cells; on Jurkat E6.1 cells transduced with human TIGIT, on Promega TIGIT Effector cells or on human primary T cells; the assay field says which; also called hTIGIT; Jurkat-hTIGIT
T1 sequence (looked up): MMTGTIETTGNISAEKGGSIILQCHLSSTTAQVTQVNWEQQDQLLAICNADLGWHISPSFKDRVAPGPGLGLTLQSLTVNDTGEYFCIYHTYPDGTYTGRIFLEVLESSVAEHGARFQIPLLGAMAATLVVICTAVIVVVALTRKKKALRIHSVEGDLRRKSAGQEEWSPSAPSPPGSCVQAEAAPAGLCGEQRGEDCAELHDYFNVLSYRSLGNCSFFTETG

T2: Human TIGIT-His (human, UniProt Q495A1 22-141, biotinylated in the ForteBio Fab assay)
T2 construct: bought (Creative Biomart); also called Biotinylated Human TIGIT HIS; TIGIT-His monomer; not shown: His tag
T2 sequence (looked up): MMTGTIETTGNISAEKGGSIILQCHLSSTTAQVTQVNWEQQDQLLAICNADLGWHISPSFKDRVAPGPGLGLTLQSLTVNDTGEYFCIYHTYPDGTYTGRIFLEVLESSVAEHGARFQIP

T3: Human TIGIT-Fc (human, UniProt Q495A1 22-141)
T3 construct: bought (Creative Biomart); also called TIGIT-Fc antigen; TIGIT-Fc fusion antigen; not shown: Fc part
T3 sequence (looked up): T2 sequence (looked up)

T4: mouse TIGIT expressed on cells (mouse, UniProt P86176 29-249)
T4 construct: whole, on cells; on Jurkat cells engineered to express mouse TIGIT; also called mTIGIT; Jurkat-mTIGIT
T4 sequence (looked up): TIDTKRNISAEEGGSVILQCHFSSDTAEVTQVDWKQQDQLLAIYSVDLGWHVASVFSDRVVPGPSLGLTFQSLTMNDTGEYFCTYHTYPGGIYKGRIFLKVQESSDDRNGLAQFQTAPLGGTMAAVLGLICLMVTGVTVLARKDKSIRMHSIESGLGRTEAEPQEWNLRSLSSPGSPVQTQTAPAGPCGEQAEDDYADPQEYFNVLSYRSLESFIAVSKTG

B1: anti-TIGIT antibody clone 29527 (IgG) (antibody, V domains shown)
VH: QVQLVESGGGVVQPGRSLRLSCAASGFTFSSSYMHWVRQAPGKGLEWVAVIGADGSNKYYADSVEGRFTISRDNSKNTLYLQMNSLRAEDTALYYCAKPVPRRRGLDVWGQGTMVTVSS
VL: DIQLTQSPSSVSASVGDRVTITCRASQGISSWLAWYQQKPGKAPKLLIYGASSLQSGVPSRFSGSGSGTDFTLTISSLQPEDFATYYCQQAFYLPWTFGGGTKVEIK
B2: anti-TIGIT antibody clone 29494 (IgG) (antibody, V domains shown)
VH: QVQLQESGPGLVKPSETLSLTCTVSGGSISSGSYYLAWIRQPPGKGLEWIGSIFRSGSTYYNPSLESRVTISVDTSKNQFSLKLSSVTAADTAVYYCAIEGANFKDFGYVAFDIWGQGTMVTVSS
VL: EIVMTQSPATLSVSPGERATLSCRASQSVSSNLAWYQQKPGQAPRLLIYGASTRATGIPARFSGSGSGTEFTLTISSLQSEDFAVYYCQQSPPWPRTFGGGTKVEIK
B3: anti-TIGIT antibody clone 29499 (IgG) (antibody, V domains shown)
VH: B2 VH with V2L, G32S, S33R, L36W, F54G, R55T, E66K, A90T, K105R
VL: B2 VL
B4: anti-TIGIT antibody clone 29513 (IgG) (antibody, V domains shown)
VH: QVQLVQSGAEVKKPGSSVKVSCKASGGTFQNYAISWVRQAPGQGLEWMGVIVPIFGTANYAQKFQGRVTVTADESTSTAYMELSSLRSEDTAVYYCARLHLGQKAYYGMDVWGQGTTVTVSS
VL: DIQMTQSPSSLSASVGDRVTITCRASQSISSYLNWYQQKPGKAPKLLIYAASSLQSGVPSRFSGSGSGTDFTLTISSLQPEDFATYYCQQRYVFPPTFGGGTKVEIK
B5: anti-TIGIT antibody clone 29523 (IgG) (antibody, V domains shown)
VH: B1 VH with Q1E, S30G, S32Y, G52W, A53P, Y59L, E65K, R102K, R103S, G105A
VL: B1 VL
B6: anti-TIGIT antibody clone 31288 (IgG) (antibody, V domains shown)
VH: B2 VH with V2L, M120T
VL: B2 VL
notes: human IgG

T5 sequence (A0A7N9I9V4 entry or part of it): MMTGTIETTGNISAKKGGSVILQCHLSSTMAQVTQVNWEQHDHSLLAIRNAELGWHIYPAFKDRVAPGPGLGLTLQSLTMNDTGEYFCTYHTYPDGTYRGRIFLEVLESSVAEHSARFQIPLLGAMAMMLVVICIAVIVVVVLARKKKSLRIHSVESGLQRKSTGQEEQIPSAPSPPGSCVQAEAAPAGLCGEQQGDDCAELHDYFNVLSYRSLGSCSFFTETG

The first assay concerns the target T1, human TIGIT expressed on cells. Description: flow cytometry, total human primary CD8+ T cells, % TIGIT stained cells, FIG. 10A. Background: A flow cytometer gives signals particle by particle.
B1 displayed an EC50 of 0.253 nM.

A further assay shares this target. The assay can be described thus: flow cytometry on Jurkat-hTIGIT, FIG. 9. The procedure:
(§1) Antibodies were incubated with the cells for 20 min at 4° C. in FACS buffer. […] Geometric mean fluorecence intensity was analysed using LSR BD Fortessa. Cell binding was recorded as the median florescence intensity of PE on the transfected line compared to the un-transfected line for each antibody (Table 3).
Consider B2, for which a half-maximal effect (EC50) was put at 0.07 nM.
On the same count and under the same terms, under B1 stands 0.05 nM.

The next assay has the same target. The assay can be described thus: flow cytometry, 100 nM Ab, Jurkat-hTIGIT vs untransfected. Here is the method:
as §1
For B2, the “FON (Fold Over Negative)” value was 164 fold.
On to B3, for which the “FON (Fold Over Negative)” value was determined as 164 fold.
The same measure, in the same setting: then B4, with 156 fold; and B5, with 150 fold.
Still for that read-out and setting: under B1 stands 142 fold.

Another assay has as its target T5, cynomolgus TIGIT on primary CD8+ T cells (Macaca fascicularis (cynomolgus), UniProt A0A7N9I9V4 89-312).
T5 construct: whole, on cells
The assay can be described thus: flow cytometry, cynomolgus CD69+CD8+ T cells, FIG. 11. Here is the method: Isolated PBMCs from Macaca fascicularis were obtained from BioPRIM. Cells were thawed and stimulated using the T cell activation/expansion kit for non-human primate (Miltenyi Biotec) at 1:2 (bead:cell ratio) following the manufacturer's specifications. The next day, cells were collected, counted and distributed at 5×10^4 cells per well. […] Then, cells were washed and incubated with the following antibodies and LVD mix for data illustrated in FIGS. 11A and 11B: anti-CD4-PercP-Cy5.5 (clone A161A1, BioLegend 357414); anti-CD8-BV510 (clone SK1, BD Bioscience 563919), CD69-APC-Cy7 (Clone FN50, BioLegend, 310914) and LVD efluor 520 (eBioscience 65-0867-14). Stained cells were analysed by FACS using BD LSR Fortessa. The EC50 value of binding was calculated using the % of positive TIGIT stained cells gated on LVD-CD69+CD8+ T cells.
B1 had an EC50 of 0.378 nM.

Another assay has as its target T2, Human TIGIT-His. The assay can be described thus: MSD-SET, monovalent (Fab or mAb titrated, not said which). The procedure:
(§2) Briefly, solution equilibrium titrations (SET) were performed in PBS+0.1% IgG-Free BSA (PBSF) with antigen (TIGIT-His monomer) held constant at 10-100 pM and incubated with 3- to 5-fold serial dilutions of Fab or mAbs starting at 10 pM-10 nM. Antibodies (20 nM in PBS) were coated onto standard bind MSD-ECL plates overnight at 4° C. or at room temperature for 30 min. Plates were then blocked by BSA for 30 min with shaking at 700 rpm, followed by three washes with wash buffer (PBSF+0.05% Tween 20). SET samples were applied and incubated on the plates for 150s with shaking at 700 rpm followed by one wash. Antigen captured on a plate was detected with 250 ng/mL sulfotag-labeled streptavidin in PBSF by incubation on the plate for 3 min. The plates were washed three times with wash buffer and then read on the MSD Sector Imager 2400 instrument using 1× Read Buffer T with surfactant. The percent free antigen was plotted as a function of titrated antibody in Prism and fit to a quadratic equation to extract the KD. To improve throughput, liquid handling robots were used throughout MSD-SET experiments, including SET sample preparation.
Take B2: the Kd turned out to be 0.07 nM.
B3 showed a Kd of 0.019 nM.
Consider B4, for which the Kd amounted to 0.025 nM.
Consider B5, for which the Kd stood at 1.7 nM. Compared with the last molecule, the Kd is about 68-fold higher.
In the case of B1, the Kd was found to be 0.64 nM.

Another assay addresses T2, Human TIGIT-His. The assay can be described thus: Biacore, IgG captured, TIGIT-His in solution. Here is the method: (§3) Biosensor analysis was conducted at 25° C. in a HBS-EP buffer system (10 mM HEPES pH 7.3, 150 mM NaCl, 3 mM EDTA, 0.05% Surfactant P20) using a Biacore 8K optical biosensor docked with a CMS sensor chip (GE Healthcare, Marlboro, Mass.). The sample hotel was maintained at 8° C. […] This surface type provided a format for reproducibly capturing fresh analysis antibody after each regeneration step. Flow cell 2 was used to analyze captured antibody (60-90 RU) while flow cell 1 was used as a reference flow cell. […] Each of the antigen sample concentrations were run as a single replicate. Two blank (buffer) injections also were run and used to assess and subtract system artefacts. The association (300 s) and dissociation (600 s) phases for all antigen concentrations were performed at a flow rate of 30 uL/min. The surface was regenerated with three sequential injections (15 s, 15 s and 60 s) of 10 mM glycine, pH 1.5 at a flow rate of 30 uL/min. The data was aligned, double referenced, and fit to a 1:1 binding model using Biacore 8K Evaluation Software, version 1.0.
On the technique in general: Surface plasmon resonance follows binding to a sensor surface in real time, without labels.
In turn, B2 came in with a Kd of 0.27 nM. In other words, the sub-nanomolar range.
On the same count and under the same terms, then B6, with 0.192 nM.

Another assay has as its target T2, Human TIGIT-His. The assay can be described thus: Biacore 8K, IgG on CM5 chip, human TIGIT-HIS in solution. The procedure:
as §3
B2: the Kd was 0.27 nM. This lies in the sub-nanomolar range.
In the case of B6, the Kd amounted to 0.192 nM.
Same read-out and setting: then B1, with 1.2 nM.

A further assay concerns the target T3, Human TIGIT-Fc. The assay can be described thus: ForteBio BLI, IgG KD, avid. Here is the method:
Briefly, ForteBio affinity measurements were performed by loading IgGs on-line onto AHQ sensors. Sensors were equilibrated off-line in assay buffer for 30 min and then monitored on-line for 60 seconds for baseline establishment. Sensors with loaded IgGs were exposed to 100 nM antigen (human TIGIT-Fc, human TIGIT-His or cyno TIGIT-Fc) for 5 minutes, afterwards they were transferred to assay buffer for 5 min for off-rate measurement. Kinetics were analyzed using the 1:1 binding model.
A general note: In BLI a coated tip is dipped into the sample, and binding shifts an interference pattern.
The molecule B2 gave a Kd of 0.376 nM.
B3: the Kd came out at 0.319 nM. This Kd and that of the molecule before are within 1.5-fold of each other.
Same read-out and setting: under B4 stands 0.392 nM; under B5, 0.531 nM; under B1, 0.35 nM.

The target of another assay is T2, Human TIGIT-His. Description: MSD-SET, monovalent (Fab or mAb titrated, not said which). The source holds these as a separate data set. Here is the method: as §2
In turn, B2 yielded a Kd of 0.07 nM.
Molecule B3 came in with a dissociation constant (Kd) of 0.019 nM.
B4 displayed a Kd of 0.025 nM.
B5 displayed a dissociation constant (Kd) of 1.7 nM.
The same measure, in the same setting: under B1 stands 0.64 nM.

For a further assay, the target named is T1, human TIGIT expressed on cells. The assay can be described thus: flow cytometry, competition with CD155-His (5 ug/ml) on Jurkat-hTIGIT.
As to B2, the IC50 was 0.07 nM. This counts as picomolar.
Turning to B3, the IC50 is 0.103 nM.
Take B4: the IC50 is 0.094 nM.
Same read-out and setting: under B5 stands 0.079 nM; under B1, 0.078 nM.

The next assay shares this target. Description: cell-based or functional assay.
On to B2, for which the “Induction over Isotype control (fold change), luciferase, Jurkat-hTIGIT + CHO-TCR-CD155, 133 nM” value was found to be 3.42 fold.
The same measure, in the same setting: under B3 stands 3.68 fold.
On the same count and under the same terms, then B4, with 3.26 fold; and B5, with 2.4 fold.
Same read-out and setting: then B1, with 2.96 fold.

The target is the same in the next assay. Description: cell-based or functional assay. This is another data set of the same source.
As to B2, the “EC50 for increase in IFNg secretion by human primary CD8 T cells, FIG. 13B” value was 6.1 nM; the “EC50 of Jurkat-hTIGIT cell activation (luciferase), FIG. 12B” value was determined as 4.4 nM; the “increase of IFNg secretion over isotype control, human primary CD8+ T cells + CHO-TCR-CD155” value (shortened to “increase of IFNg secretion”) came out at 5.8 fold.
In the case of B3, the “increase of IFNg secretion” value is 5.2 fold.
As for B4, the “increase of IFNg secretion” value came to 3.2 fold.
Regarding B1, the “EC50 for increase in IFNg secretion by human primary CD8 T cells, FIG. 13B” value came to 5.1 nM; the “EC50 of Jurkat-hTIGIT cell activation (luciferase), FIG. 12B” value is 32 nM; the “increase of IFNg secretion” value worked out at 4.5 fold.

In a further assay the target is T4, mouse TIGIT expressed on cells. Description: flow cytometry, 100 nM Ab, Jurkat-mTIGIT vs untransfected. The procedure:
as §1
For the molecule B2, the “FON (Fold Over Negative)” value turned out to be 511 fold.
For the molecule B3, the “FON (Fold Over Negative)” value came to 541 fold.
Turning to B4, the “FON (Fold Over Negative)” value amounted to 406 fold.
B5: the “FON (Fold Over Negative)” value stood at 502 fold.
The same measure, in the same setting: then B1, with 414 fold.
